Experimental findings from patent US20210355219A1 (HARPOON THERAPEUTICS, published 2021) are described below.

In experiment [1] the target is CD40 on purified human B cells (human, UniProt P25942 21-277). The experiment in a line: cell-based or functional assay.
Experiment [2] addresses T1, C00703 huCD40::Fc (human).
T1 construct: also called human CD40 protein; immobilized huCD40
The experiment in a line: ELISA, immobilized huCD40, purified protein.

The target in experiment [3] is T1, C00703 huCD40::Fc. The experiment is described as follows: ELISA, immobilized huCD40; EC50 shift against unmasked anti-CD40.
Experiment [4] concerns the target T1, C00703 huCD40::Fc. The experiment in a line: ELISA, immobilized huCD40; the reference of the shift. On the technique in general: In an ELISA, binding on a coated surface is turned into a signal by an enzyme label.

T1 sequence (chain, as listed by the source limits assumed): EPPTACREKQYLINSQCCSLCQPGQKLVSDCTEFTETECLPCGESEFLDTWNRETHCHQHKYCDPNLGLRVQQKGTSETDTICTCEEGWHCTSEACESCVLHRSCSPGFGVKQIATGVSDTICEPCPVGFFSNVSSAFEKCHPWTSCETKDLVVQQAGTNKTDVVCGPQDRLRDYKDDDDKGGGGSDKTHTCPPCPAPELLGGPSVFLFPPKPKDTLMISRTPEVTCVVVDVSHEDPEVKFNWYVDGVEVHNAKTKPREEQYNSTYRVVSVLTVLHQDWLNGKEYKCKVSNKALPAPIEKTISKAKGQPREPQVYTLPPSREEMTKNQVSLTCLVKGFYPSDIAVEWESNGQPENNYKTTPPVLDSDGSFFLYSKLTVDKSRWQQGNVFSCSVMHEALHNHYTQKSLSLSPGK
CD40 on purified human B cells, sequence (P25942 21-277): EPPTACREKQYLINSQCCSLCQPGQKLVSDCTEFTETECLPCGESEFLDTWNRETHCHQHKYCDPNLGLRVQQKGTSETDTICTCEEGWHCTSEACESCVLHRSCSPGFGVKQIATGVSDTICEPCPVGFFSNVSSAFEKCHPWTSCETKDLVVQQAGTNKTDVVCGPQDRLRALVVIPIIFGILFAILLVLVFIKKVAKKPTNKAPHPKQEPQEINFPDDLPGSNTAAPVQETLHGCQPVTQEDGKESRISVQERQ

B1: anti-Alb mask070 anti-CD40 C2882, C2764 (aCD40 Heavy Chain GDSE) (bispecific antibody, human IgG1, kappa)
heavy: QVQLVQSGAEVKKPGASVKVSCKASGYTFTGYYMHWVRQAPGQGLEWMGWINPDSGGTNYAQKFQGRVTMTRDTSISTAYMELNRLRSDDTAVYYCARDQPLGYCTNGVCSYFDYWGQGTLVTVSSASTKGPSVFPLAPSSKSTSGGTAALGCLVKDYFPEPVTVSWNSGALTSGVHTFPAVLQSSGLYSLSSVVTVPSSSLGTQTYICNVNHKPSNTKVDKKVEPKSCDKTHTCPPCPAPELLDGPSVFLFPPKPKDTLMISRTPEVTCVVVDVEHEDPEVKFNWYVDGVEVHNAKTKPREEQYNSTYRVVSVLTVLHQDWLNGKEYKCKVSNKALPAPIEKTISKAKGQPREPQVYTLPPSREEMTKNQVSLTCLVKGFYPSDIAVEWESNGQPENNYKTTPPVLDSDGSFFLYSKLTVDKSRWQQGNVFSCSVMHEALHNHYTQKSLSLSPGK
light: EVQLVESGGGLVQPGNSLTLSCAASGFTFSKFGMSWVRQARAASAGQGLEWVSSISGSGRDTLYADSVKGRFTISRDNAKTTLYLQMNSLRPEDTAVYYCTIGGSLSVSSQGTLVTVSSGGGGSGGGSGGGGSGGGSDIQMTQSPSSVSASVGDRVTITCRASQGIYSWLAWYQQKPGKAPNLLIYTASTLQSGVPSRFSGSGSGTDFTLTISSLQPEDFATYYCQQANIFPLTFGGGTKVEIKRTVAAPSVFIFPPSDEQLKSGTASVVCLLNNFYPREAKVQWKVDNALQSGNSQESVTEQDSKDSTYSLSSTLTLSKADYEKHKVYACEVTHQGLSSPVTKSFNRGEC
notes: Non-cleavable linker; Purified by Protein A. Same light chain as m2 but with the GDSE heavy chain C2764; also called C2882 aAlb-CD40-mask070
In the case of B1, the “Activity shift, B cell activation” value in experiment [1] was determined as 2000 fold. The molecule also gave an EC50 with C00703 huCD40::Fc [2] of 25 nM. The Binding shift in the experiment with C00703 huCD40::Fc [3] was found to be 52 fold.

B2: Unmasked anti-CD40 C00697, C2764 (aCD40 Heavy Chain GDSE) (antibody, human IgG1, kappa, V domains shown)
VH: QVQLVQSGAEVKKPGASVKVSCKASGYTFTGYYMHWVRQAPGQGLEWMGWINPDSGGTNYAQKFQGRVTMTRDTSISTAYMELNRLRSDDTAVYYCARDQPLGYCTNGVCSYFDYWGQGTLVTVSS
VL: DIQMTQSPSSVSASVGDRVTITCRASQGIYSWLAWYQQKPGKAPNLLIYTASTLQSGVPSRFSGSGSGTDFTLTISSLQPEDFATYYCQQANIFPLTFGGGTKVEIKR
notes: Anti-CD40 light chain without an anti-Alb domain; also called Active mimic C00697, C2764; control active mimic
For B2, in experiment [1], the “Activity shift, B cell activation” value was 1 fold and the “EC50 (M), B cell activation (percentage of CD86 positive B cells, flow cytometry, 48 hours)” value amounted to 2.1e-11 M. It took 0.48 nM to reach a half-maximal effect with C00703 huCD40::Fc [2] (EC50). Moreover, in the experiment with C00703 huCD40::Fc [4], the Binding shift was found to be 1 fold.

The term EC50 denotes the concentration that produces a half-maximal response.
